Reference: the RNAGym collection of RNA variant scans (doi:10.7554/elife.90254)

B1: OR4K15 (parent)
chain: GUUAACGGUCAUAGGCCAUGGAAACUAGGAGCACCAUUUCGCUGCCAGUGAAGAAAUGAACAAAGAAAAUCUGGGCCAGGCAGGCAUCAAAAGAAAUAGUCUUGCGCUCAACCAGAAAGUCUGUAAUCAUUUUAAGGGUA

Variants of: B1
Test: self-cleavage, relative activity (ratio to wild type); higher = more cleavage; in vitro, sequencing; the parent is a self-cleaving ribozyme

Variant	self-cleavage
A90U U124G	1.66
A91G U108A	0.01
A92G A98G	0.74
A89U U132A	1.35
A89U U132C	1.64
A90G U139C	1.2
A92G U97C	1.57
A90G A92G	1.01
A94G U130C	1.16
A94G U130A	1.41
A95G G104A	0.08
A91G A126G	0.55
A95C A110G	0.16
A96G A118U	0.79
A96C U130C	0.69
A91G U124A	1.78
A91G U124C	0.62
A92G G123A	2.51
A89U A90G	1.48
A90G A126G	0.95
A92U U100C	2.23
A94U C107U	0.01
A96G A125G	0.69
A96G A125U	1.42

Variant	self-cleavage
A95G A114U	0.42
A95U A111G	0.05
A96C U103C	0.9
A91G A140G	1.21
A91G U122C	0.42
A96C U100A	0.96
A96C U100C	2.01
A94G U103C	0.69
A94G U103G	0.03
A94G U103A	0.39
A95G U103G	0.06
A95G U103C	1.25
A95G G106A	0
A95G C113U	0.15
A90U U133C	1.61
A92G U102A	0.61
A92G U102G	0.61
A92G U102C	1.8
A94U U120A	2.18
A96G A140G	1.47
A92C A96G	1.73
A89U G115U	0.56
A90G U124A	0.47
A92U A118G	1.02

Variant	self-cleavage
A91G A125G	0.16
A90G G106C	0
A90G G137C	1.19
A91G C109U	0.4
A95G U133C	1.23
A91U A114U	0.14
A91U A114G	0.62
A92G A114G	0.29
A92G A114U	0.02
A91C U131A	2.16
A91G A114C	0.02
A94G A134U	1.58
A92G A129G	0.74
A92G A126C	0.94
A91U U97C	2.02
A91U U97A	2.19
A94G A140U	0.72
A94G A117G	1.92
A91G G138A	0.95
A96G C113G	0.02
A95G U139G	2.68
A95G U139C	2.07
A95G U139A	2.01
A95G A111G	0.03

Variant	self-cleavage
A95G A111C	0.02
A95G A111U	0.15
A95U U130C	0.47
A95U A116G	1
A95C A96G	1.13
A92G U120C	0.64
A94G U108A	0.01
A94G A129G	1.29
A94G G106A	0
A90U A92G	1.38
A89U C121U	2.24
A95G G138C	2.62
A91G A118U	0.53
A91G A118C	0.47
A95U C105U	0.45
A95G U97C	1.23
A92G A110G	0.17
A92G U103C	0.6
A92G U103G	0.03
A91G A110G	0.11
A96G A117U	0.89
A94G A111G	0.03
A90G C107A	0.02
A92G A95U	1.8

Variant	self-cleavage
A95G A129U	1.52
A90G U132A	0.56
A90G U132C	1.12
A92G U108A	0.03
A92G U108C	0.01
A92G A94G	1.49
A94G A116C	0.24
A94G A116G	0.39
A94G A116U	0.38
A92C U132C	1.05
A90G A95G	2.02
A92G A135U	2.03
A96G A111G	0.02
A96G A111U	0.11
A91C	1.53
A91U	1.74
A91G	0.97
A89U U102C	1.9
A89U U131C	1.47
A94U A126G	1.84
A94U A118C	1.53
A94U A118G	1.51
A90G A125U	1.7
A95G A98U	1.77

Variant	self-cleavage
A94U A116G	0.48
A94U A116C	0.07
A96G A114G	0.44
A92U U102C	2.01
A90G G104A	0.02
A92G A134U	2.03
A96C G104A	0.02
A94U A125C	1.08
A90G U122A	0.84
A94G U120C	1.02
A90U A111G	0.02
A91G A111G	0.01
A94C A116U	0.18
A91U U122C	1.4
A91G A117G	1.48
A91G A117C	0.67
A89U U108A	0.02
A90G C112G	0
A91C U120C	0.94
A95U A117G	2.29
A90C A118G	1.04
A90U A129G	1.51
A91U A94G	1.54
A91G A95C	0.94

Variant	self-cleavage
A91G A95G	1.76
A90G A135C	0.91
A90G A135U	0.39
A96C A117G	1.87
A89U A125G	0.77
A91U A111U	0.23
A94G U124C	0.21
A91G U139A	1.64
A91G U139C	1.71
A94U U122C	2.05
A92G G119A	2.3
A94U U127C	1.21
A92U A126U	1.02
A94G U132C	1.52
A89U G104C	0.01
A96C A126G	0.77
A90G A129U	0.35
A90G A129G	0.22
A91G A134G	0.97
A95G A96U	0.7
A90G A98G	0.22
A90G A98U	1.62
A94U A135G	2.33
